This experiment has as its target GFP–cyclin A (human) (UniProt P20248). Briefly: fluorescence cross-correlation spectroscopy.
Sequence of UniProt P20248 (P20248 whole entry): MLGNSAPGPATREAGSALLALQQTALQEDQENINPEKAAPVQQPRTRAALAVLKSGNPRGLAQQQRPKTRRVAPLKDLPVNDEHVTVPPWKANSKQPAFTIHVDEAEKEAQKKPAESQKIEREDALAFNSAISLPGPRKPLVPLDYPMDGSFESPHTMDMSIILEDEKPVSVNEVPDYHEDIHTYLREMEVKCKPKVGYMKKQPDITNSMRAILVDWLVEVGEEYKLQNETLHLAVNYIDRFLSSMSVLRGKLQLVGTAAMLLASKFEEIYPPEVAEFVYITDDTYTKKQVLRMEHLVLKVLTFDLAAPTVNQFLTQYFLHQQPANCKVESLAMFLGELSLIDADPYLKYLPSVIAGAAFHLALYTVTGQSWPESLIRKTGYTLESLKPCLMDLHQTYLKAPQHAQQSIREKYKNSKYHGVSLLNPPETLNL

Take “mCherry–SAMHD1 (from UniProt Q9Y3Z3 1-626) (natural protein)”: the cross-correlation was found to be 9.9%.
